This data set deals with zebrafish embryos. Nature of the data set: Brain size, morphology and volume of zebrafish embryos (microscopy, MRI). The following applies: for brain development: 22 hpf. The class given is in vivo. As to the method: An aqueous solution of a 25-mer antisense morpholino oligonucleotide (AMO, Gene Tools, LLC) corresponding to the vicinity of the translation initiation codon in the cDNA sequence of the gene to be knocked down ([…] injection conditions were the same as those used for RNA) was injected into the embryos at the 1-cell stage. The sequence of AMO used for the CRBN gene knockdown is 5′-[…]-3′ (SEQ ID NO: 3). The sequence of AMO used for the Lhx2 gene knockdown is 5′-[…]-3′ (SEQ ID NO:4). The sequence of AMO used for the BRD7 gene knockdown is 5′-[…]-3′ (SEQ ID NO:1). The sequence of AMO used for the Ikaros gene knockdown is 5′-[…]-3′ (SEQ ID NO:2). […]
In order to examine the effect of antagonists of BRD7 on brain growth, BRD7 was knocked down or over-expressed in zebrafish embryos. Knockdown of BRD7 was performed by microinjection of antisense morpholino oligonucleotides (AMO). Overexpression of BRD7 was performed by microinjection of synthesized capped mRNA. AMO or capped mRNA was introduced into one-cell stage embryos by using a nitrogen gas-pressure microinjector IM 300 (Narishige). Conditions for microinjection were as follows: gas pressure was about 15 picosiemens; release period was about 30 to about 50 milliseconds per single injection; concentrations of AMOs and capped mRNA were 400 ng/μl and 250 ng/μl in nuclease-free water, respectively. Capped mRNAs were synthesized in vitro using the mMESSAGE mMachine® in vitro transcription kit (Ambion) from cDNAs cloned into pCS2+ plasmids.
The brains of the embryos were examined for morphology and volume by magnetic resonance imaging (MRI). FIGS. 9A, 9B, and 9C show microscopic pictures of the untreated, the BRD7-knockdown, and the BRD7-overexpressing zebrafish embryos, respectively. FIGS. 9D, 9E, and 9F show fluorescent microscopic pictures of the brain regions of the untreated, the BRD7-knockdown, and the BRD7-overexpressing zebrafish embryos, respectively. As shown in these figures, the BRD7-knockdown zebrafish embryos had bigger heads than the untreated embryos. […] The volume of the whole brain of the BRD7-knockdown fish was much bigger than that of the untreated fish, while for the BRD7-overexpressing fish, the brain volume was smaller.
In order to examine the effect of antagonists of Ikaros on brain growth, Ikaros was knocked down or over-expressed in zebrafish embryos. Knockdown of Ikaros was performed by microinjection of antisense morpholino oligonucleotides (AMO). Overexpression of Ikaros was performed by injection of synthesized capped mRNA. AMO or capped mRNA was introduced into one-cell stage embryos by using a nitrogen gas-pressure microinjector IM 300 (Narishige). Conditions for microinjection were as follows: gas pressure was about 15 picosiemens; release period was about 30 to about 50 milliseconds per single injection; concentrations of AMOs and capped mRNA were 400 ng/μl and 250 ng/μl in nuclease-free water, respectively. Capped mRNAs were synthesized in vitro using the mMESSAGE mMachine® in vitro transcription kit (Ambion) from cDNAs cloned into pCS2+ plasmids.
The brains of the embryos were examined for morphology and volume by magnetic resonance imaging (MRI). FIGS. 15A, 15B, and 15C show microscopic pictures of untreated, Ikaros-knockdown, and Ikaros-overexpressing zebrafish embryos at 55 hpf, respectively. As shown in these figures, the Ikaros-knockdown fish had bigger heads than the untreated embryos. […] The volume of the whole brain of the Ikaros-knockdown fish was much bigger than that of the untreated fish, while for the Ikaros-overexpressing fish, the brain volume was smaller.

From US10272117B2, “Methods of using an activator of cereblon for neural cell expansion and the treatment of central nervous system disorders” (Celgene Corporation, priority 2014, dated 2019) come the findings set out here.

In the case of “5′-TCTGCAACCCAAGATTTCCGTGAGA-3′ (all phosphorodiamidate morpholino (PMO)) [lhx2 gene-knockdown, 25-mer antisense morpholino oligonucleotide (AMO) used for the Lhx2 gene knockdown, reference compound]”, the “brain size compared to the normal embryo” value (FIG. 1) is “brain shrinkage”.

B1: ikzf1-007: Ikaros variant lacking exons 4 and 7, overexpressed as fused Ikzf1:EGFP protein in zebrafish embryos (nucleic acid)
DNA: ATGGAGACTGAGGAGGCACAGGAAATGTCCCAGATAACAGGAAGAGACAGCCCGATGAATGCTAATGAAGGCGGAGAGGATCAAGATGAGGCCATGCCTGTTCCTGAAGACTTGTCAGCAAGCACTGGCCTCCAACACAACAATCGCACAGATAAACCACTGGCCTGTAATATAAAAGTTGAGGCTCGGAGTGACGAGGAAAACGGTCTGTCCTGTGAGATGAATGGAGAGGCAGAGGAATGTGCAGCTGAGGACTTGCGCATACTCGATGGCTCTGGGGCCAAAGTGAACGGCTCCCACGCAGGCCCCGACAGCAAGCCGGCCGCCTACCCCACAGCCGGGGGCATCCGCCTCCCCAACGGGAAGCTGAAGTGCGATATCTGTGGGATAGTTTGCATTGGGCCCAATGTGTTGATGGTTCACAAGCGAAGTCACACTGGTGAAAGGCCATTCCAGTGCAATCAATGTGGTGCTTCATTCACTCAGAAGGGTAACCTGCTCCGACACATCAAACTTCACTCTGGCGAGAAACCTTTCAAATGTCACCTGTGCAACTATGCTTGCCGCCGCAGAGACGCTCTCACTGGACATCTGCGCACTCATTCGGTTGGAAAGCCCCATAAGTGTGCATATTGCGGACGCAGTTACAAGCAGCGGAGCTCACTGGAGGAACATAAGGAGAGATGTCACAACTACTTGCAGTGCATGGGCCTTCAGAACAGCATTTATACAGGAGAGAATCGTCTGTCAGAGCTATCTTTCGAGAGTGGCTCANGTGAGCTGATGCAGCCCCATGTGATTGATCAGGCCATCAACAGTGCAATTAGCTATCTGGGTGCAGAGTCCTTGCGGCCTCTGGTTCAGACCTCTCCTGGGTCCGCCGACATGGTGGTCAGCCCTCTATACAACCTGCACAAGTCACAAACAGCTGAAGGCAATGGTGTTTCTGCTAAAGACAGCGCCGCAGAGCACCTTCTCCTACTCTCTAAGTCCAAATCCGCCTCTGTTGACAAAGACGGTTCCCCCAGTCCCAGCGGGCAGGATTCCACTGACACTGAGAGCAACAACGAGGAGCGTTCGGCCGGGGTAAGCGGAACAGCAGCCACAGGTGGTCTCATCTACCTGACCAACCACATGGCTCCAGGTATGAGAAATGGAGGCCTGCCAGGGGTAAAGGAAGAACAACACCGGCAGTTTGAGGCTTTGCGAGCAGCAGGAATGGATTTGAGTATAGCGTCATCAGAAGGATTTAAGGTGCTAAGTGGAGATGGAGAAGAATTGAGGGCGTACCGCTGTATCCACTGCAGAGTTTTGTTCCTGGATCATGTCATGTACACCATCCACATGGGCTGTCATGGCTTCCGAGACCCCTTTGAGTGCAACCTATGCGGGTACCGCAGTCAGGACCGTTATGAGTTCTCATCGCACATCACACGTGGAGAGCACCGCATCTGA
modifications: fused to EGFP; nucleotide sequence of ikzf1-007 Ikaros variant; 775 n = A,T,C or G
notes: Ikaros variant lacking exons 4 and 7, overexpressed as fused Ikzf1:EGFP protein in zebrafish embryos
As to B1, the brain development result is “reduction of brain development”.

B2: ikzf1-006: Ikaros variant lacking exon 7, overexpressed as fused Ikzf1:EGFP protein in zebrafish embryos (nucleic acid)
DNA: ATGGAGACTGAGGAGGCACAGGAAATGTCCCAGATAACAGGAAGAGACAGCCCGATGAATGCTAATGAAGGCGGAGAGGATCAAGATGAGGCCATGCCTGTTCCTGAAGACTTGTCAGCAAGCACTGGCCTCCAACACAACAATCGCACAGATAAACCACTGGCCTGTAATATAAAAGTTGAGGCTCGGAGTGACGAGGAAAACGGTCTGTCCTGTGAGATGAATGGAGAGGCAGAGGAATGTGCAGCTGAGGACTTGCGCATACTCGATGGCTCTGGGGCCAAAGTGAACGGCTCCCACGCAGGCCCCGACAGCAAGCCGGCCGCCTACCCCACAGCCGGGGGCATCCGCCTCCCCAACGGGAAGCTGAAGTGCGATATCTGTGGGATAGTTTGCATTGGGCCCAATGTGTTGATGGTTCACAAGCGAAGTCACACTGAAGAAAGAAAGTCAGTTTTGGAACAACAAAAAGGTGAAAGGCCATTCCAGTGCAATCAATGTGGTGCTTCATTCACTCAGAAGGGTAACCTGCTCCGACACATCAAACTTCACTCTGGCGAGAAACCTTTCAAATGTCACCTGTGCAACTATGCTTGCCGCCGCAGAGACGCTCTCACTGGACATCTGCGCACTCATTCGGTTGGAAAGCCCCATAAGTGTGCATATTGCGGACGCAGTTACAAGCAGCGGAGCTCACTGGAGGAACATAAGGAGAGATGTCACAACTACTTGCAGTGCATGGGCCTTCAGAACAGCATTTATACAGGAGAGAATCGTCTGTCAGAGCTATCTTTCGAGAGTGGCTCANGTGAGCTGATGCAGCCCCATGTGATTGATCAGGCCATCAACAGTGCAATTAGCTATCTGGGTGCAGAGTCCTTGCGGCCTCTGGTTCAGACCTCTCCTGGGTCCGCCGACATGGTGGTCAGCCCTCTATACAACCTGCACAAGTCACAAACAGCTGAAGGCAATGGTGTTTCTGCTAAAGACAGCGCCGCAGAGCACCTTCTCCTACTCTCTAAGTCCAAATCCGCCTCTGTTGACAAAGACGGTTCCCCCAGTCCCAGCGGGCAGGATTCCACTGACACTGAGAGCAACAACGAGGAGCGTTCGGCCGGGGTAAGCGGAACAGCAGCCACAGGTGGTCTCATCTACCTGACCAACCACATGGCTCCAGGTATGAGAAATGGAGGCCTGCCAGGGGTAAAGGAAGAACAACACCGGCAGTTTGAGGCTTTGCGAGCAGCAGGAATGGATTTGAGTATAGCGTCATCAGAAGGATTTAAGGTGCTAAGTGGAGATGGAGAAGAATTGAGGGCGTACCGCTGTATCCACTGCAGAGTTTTGTTCCTGGATCATGTCATGTACACCATCCACATGGGCTGTCATGGCTTCCGAGACCCCTTTGAGTGCAACCTATGCGGGTACCGCAGTCAGGACCGTTATGAGTTCTCATCGCACATCACACGTGGAGAGCACCGCATCTGA
modifications: fused to EGFP; nucleotide sequence of ikzf1-006 Ikaros variant; 808 n = A,T,C or G
notes: Ikaros variant lacking exon 7, overexpressed as fused Ikzf1:EGFP protein in zebrafish embryos
For the molecule B2, the brain development result was “reduction of brain development”.
